B1: BCL11B (protein, UniProt Q9C0K0 1-894, looked up)
B-cell lymphoma/leukemia 11B: MSRRKQGNPQHLSQRELITPEADHVEAAILEEDEGLEIEEPSGLGLMVGGPDPDLLTCGQCQMNFPLGDILVFIEHKRKQCGGSLGACYDKALDKDSPPPSSRSELRKVSEPVEIGIQVTPDEDDHLLSPTKGICPKQENIAGPCRPAQLPAVAPIAASSHPHSSVITSPLRALGALPPCLPLPCCSARPVSGDGTQGEGQTEAPFGCQCQLSGKDEPSSYICTTCKQPFNSAWFLLQHAQNTHGFRIYLEPGPASSSLTPRLTIPPPLGPEAVAQSPLMNFLGDSNPFNLLRMTGPILRDHPGFGEGRLPGTPPLFSPPPRHHLDPHRLSAEEMGLVAQHPSAFDRVMRLNPMAIDSPAMDFSRRLRELAGNSSTPPPVSPGRGNPMHRLLNPFQPSPKSPFLSTPPLPPMPPGGTPPPQPPAKSKSCEFCGKTFKFQSNLIVHRRSHTGEKPYKCQLCDHACSQASKLKRHMKTHMHKAGSLAGRSDDGLSAASSPEPGTSELAGEGLKAADGDFRHHESDPSLGHEPEEEDEEEEEEEEELLLENESRPESSFSMDSELSRNRENGGGGVPGVPGAGGGAAKALADEKALVLGKVMENVGLGALPQYGELLADKQKRGAFLKRAAGGGDAGDDDDAGGCGDAGAGGAVNGRGGGFAPGTEPFPGLFPRKPAPLPSPGLNSAAKRIKVEKDLELPPAALIPSENVYSQWLVGYAASRHFMKDPFLGFTDARQSPFATSSEHSSENGSLRFSTPPGDLLDGGLSGRSGTASGGSTPHLGGPGPGRPSSKEGRRSDTCEYCGKVFKNCSNLTVHRRSHTGERPYKCELCNYACAQSSKLTRHMKTHGQIGKEVYRCDICQMPFSVYSTLEKHMKKWHGEHLLTNDVKIEQAERS
B2: SNAI2 (protein, UniProt O43623 1-268, looked up)
Zinc finger protein SNAI2: MPRSFLVKKHFNASKKPNYSELDTHTVIISPYLYESYSMPVIPQPEILSSGAYSPITVWTTAAPFHAQLPNGLSPLSGYSSSLGRVSPPPPSDTSSKDHSGSESPISDEEERLQSKLSDPHAIEAEKFQCNLCNKTYSTFSGLAKHKQLHCDAQSRKSFSCKYCDKEYVSLGALKMHIRTHTLPCVCKICGKAFSRPWLLQGHIRTHTGEKPFSCPHCNRAFADRSNLRAHLQTHSDVKKYQCKNCSKTFSRMSLLHKHEESGCCVAH
B3: SNAPC4 (protein, UniProt Q5SXM2 1-1469, looked up)
snRNA-activating protein …: MDVDAEREKITQEIKELERILDPGSSGSHVEISESSLESDSEADSLPSEDLDPADPPISEEERWGEASNDEDDPKDKTLPEDPETCLQLNMVYQEVIQEKLAEANLLLAQNREQQEELMRDLAGSKGTKVKDGKSLPPSTYMGHFMKPYFKDKVTGVGPPANEDTREKAAQGIKAFEELLVTKWKNWEKALLRKSVVSDRLQRLLQPKLLKLEYLHQKQSKVSSELERQALEKQGREAEKEIQDINQLPEEALLGNRLDSHDWEKISNINFEGSRSAEEIRKFWQNSEHPSINKQEWSREEEERLQAIAAAHGHLEWQKIAEELGTSRSAFQCLQKFQQHNKALKRKEWTEEEDRMLTQLVQEMRVGSHIPYRRIVYYMEGRDSMQLIYRWTKSLDPGLKKGYWAPEEDAKLLQAVAKYGEQDWFKIREEVPGRSDAQCRDRYLRRLHFSLKKGRWNLKEEEQLIELIEKYGVGHWAKIASELPHRSGSQCLSKWKIMMGKKQGLRRRRRRARHSVRWSSTSSSGSSSGSSGGSSSSSSSSSEEDEPEQAQAGEGDRALLSPQYMVPDMDLWVPARQSTSQPWRGGAGAWLGGPAASLSPPKGSSASQGGSKEASTTAAAPGEETSPVQVPARAHGPVPRSAQASHSADTRPAGAEKQALEGGRRLLTVPVETVLRVLRANTAARSCTQKEQLRQPPLPTSSPGVSSGDSVARSHVQWLRHRATQSGQRRWRHALHRRLLNRRLLLAVTPWVGDVVVPCTQASQRPAVVQTQADGLREQLQQARLASTPVFTLFTQLFHIDTAGCLEVVRERKALPPRLPQAGARDPPVHLLQASSSAQSTPGHLFPNVPAQEASKSASHKGSRRLASSRVERTLPQASLLASTGPRPKPKTVSELLQEKRLQEARAREATRGPVVLPSQLLVSSSVILQPPLPHTPHGRPAPGPTVLNVPLSGPGAPAAAKPGTSGSWQEAGTSAKDKRLSTMQALPLAPVFSEAEGTAPAASQAPALGPGQISVSCPESGLGQSQAPAASRKQGLPEAPPFLPAAPSPTPLPVQPLSLTHIGGPHVATSVPLPVTWVLTAQGLLPVPVPAVVSLPRPAGTPGPAGLLATLLPPLTETRAAQGPRAPALSSSWQPPANMNREPEPSCRTDTPAPPTHALSQSPAEADGSVAFVPGEAQVAREIPEPRTSSHADPPEAEPPWSGRLPAFGGVIPATEPRGTPGSPSGTQEPRGPLGLEKLPLRQPGPEKGALDLEKPPLPQPGPEKGALDLGLLSQEGEAATQQWLGGQRGVRVPLLGSRLPYQPPALCSLRALSGLLLHKKALEHKATSLVVGGEAERPAGALQASLGLVRGQLQDNPAYLLLRARFLAAFTLPALLATLAPQGVRTTLSVPSRVGSESEDEDLLSELELADRDGQPGCTTATCPIQGAPDSGKCSASSCLDTSNDPDDLDVLRTRHARHTRKRRRLV
B4: SMARCAD1 (protein, UniProt Q9H4L7 1-1026, looked up)
SWI/SNF-related …: MNLFNLDRFRFEKRNKIEEAPEATPQPSQPGPSSPISLSAEEENAEGEVSRANTPDSDITEKTEDSSVPETPDNERKASISYFKNQRGIQYIDLSSDSEDVVSPNCSNTVQEKTFNKDTVIIVSEPSEDEESQGLPTMARRNDDISELEDLSELEDLKDAKLQTLKELFPQRSDNDLLKLIESTSTMDGAIAAALLMFGDAGGGPRKRKLSSSSEPYEEDEFNDDQSIKKTRLDHGEESNESAESSSNWEKQESIVLKLQKEFPNFDKQELREVLKEHEWMYTEALESLKVFAEDQDMQYVSQSEVPNGKEVSSRSQNYPKNATKTKLKQKFSMKAQNGFNKKRKKNVFNPKRVVEDSEYDSGSDVGSSLDEDYSSGEEVMEDGYKGKILHFLQDASIGELTLIPQCSQKKAQKITELRPFNSWEALFTKMSKTNGLSEDLIWHCKTLIQERDVVIRLMNKCEDISNKLTKQVTMLTGNGGGWNIEQPSILNQSLSLKPYQKVGLNWLALVHKHGLNGILADEMGLGKTIQAIAFLAYLYQEGNNGPHLIVVPASTIDNWLREVNLWCPTLKVLCYYGSQEERKQIRFNIHSRYEDYNVIVTTYNCAISSSDDRSLFRRLKLNYAIFDEGHMLKNMGSIRYQHLMTINANNRLLLTGTPVQNNLLELMSLLNFVMPHMFSSSTSEIRRMFSSKTKSADEQSIYEKERIAHAKQIIKPFILRRVKEEVLKQLPPKKDRIELCAMSEKQEQLYLGLFNRLKKSINNLEKNTEMCNVMMQLRKMANHPLLHRQYYTAEKLKEMSQLMLKEPTHCEANPDLIFEDMEVMTDFELHVLCKQYRHINNFQLDMDLILDSGKFRVLGCILSELKQKGDRVVLFSQFTMMLDILEVLLKHHQHRYLRLDGKTQISERIHLIDEFNTDMDIFVFLLSTKAGGLGINLTSANVVILHDIDCNPYNDKQAEDRCHRVGQTKEVLVIKLISQGTIEESMLKINQQKLKLEQDMTTVDEGDEGSMPADIATLLKTSMGL
B5: SMYD1 (protein, UniProt Q8NB12 1-490, looked up)
Histone-lysine …: MTIGRMENVEVFTAEGKGRGLKATKEFWAADIIFAERAYSAVVFDSLVNFVCHTCFKRQEKLHRCGQCKFAHYCDRTCQKDAWLNHKNECSAIKRYGKVPNENIRLAARIMWRVEREGTGLTEGCLVSVDDLQNHVEHFGEEEQKDLRVDVDTFLQYWPPQSQQFSMQYISHIFGVINCNGFTLSDQRGLQAVGVGIFPNLGLVNHDCWPNCTVIFNNGNHEAVKSMFHTQMRIELRALGKISEGEELTVSYIDFLNVSEERKRQLKKQYYFDCTCEHCQKKLKDDLFLGVKDNPKPSQEVVKEMIQFSKDTLEKIDKARSEGLYHEVVKLCRECLEKQEPVFADTNIYMLRMLSIVSEVLSYLQAFEEASFYARRMVDGYMKLYHPNNAQLGMAVMRAGLTNWHAGNIEVGHGMICKAYAILLVTHGPSHPITKDLEAMRVQTEMELRMFRQNEFMYYKMREAALNNQPMQVMAEPSNEPSPALFHKKQ

Tested on: HEK293FT cells transfected with TF library
Test: Screening of TF condensates based on fluorescent puncta
Format: cell-based
Conditions: Figure 1B numerical data; TF library screen, one value per transcriptional factor
In short: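 Cells were seeded onto plasmid/PEI-loaded wells (plasmid 1.6 μg/ml final) and grown 60 h. Medium with or without glucose followed for 12 h. Fixed, permeabilized cells were stained against Flag or GAL4 tags, and condensate puncta were quantified from 50 random fields per well.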

Molecule | Z score of condensed fraction
B1 | -0.7987
B2 | -0.6818
B3 | -0.9989
B4 | -0.654
B5 | -0.4905
